System: MS2 coat protein
Experiment: apparent KD of MS2 coat protein; designed switch direction (-1 OFF switch, 1 ON switch): -1; higher = weaker reporter binding
How it was run: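 The apparent KD reported per design is the median over clusters of curve fits to normalised cluster fluorescence. The RNA switches were transcribed on Illumina chips by stalled E. coli RNA polymerase. SNAP-549-labelled MS2 coat protein was titrated from 0.7 or 1.5 nM, doubling up to 3 µM, in Tris-HCl pH 7.5 buffer containing KCl, MgCl2, BSA, DTT, tRNA and Tween-20, with no input, 200 uM small-molecule ligand, or an oligonucleotide input.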

[1] = Eterna round: R95, input ligand: microRNA oligo, concentration not stated
[2] = input ligand: microRNA oligo, concentration not stated
[3] = Eterna round: R95, input ligand: FMN 200 uM
[4] = Eterna round: R95, input ligand: none

Sequence	apparent KD of MS2 coat protein (input ligand: FMN 200 uM) [nM]	apparent KD of MS2 coat protein (input ligand: none) [nM]	apparent KD of MS2 coat protein [1] [nM]	apparent KD of MS2 coat protein [2] [nM]	apparent KD of MS2 coat protein [3] [nM]	apparent KD of MS2 coat protein [4] [nM]
UAGUGCUGAGGAUAUACAUGAGGAUCACCCAUGUGCCUUUAACUUAAAGUGUGCACAAGUAGAAGGCGGUGCAA [Eternabot (L1) Solution 93] (Eterna round: R97, puzzle: Exclusion 3)	20	19.5				
UUUUGCACGCUGCGGUCCUACAUGAGGAUCACCCAUGUGGUCUGGUGGCGUGGGUCGCCGGACUUGGCUCGUCUUGA [salish99_S_TOV1_R5_037] (Eterna round: R97, puzzle: Sensor, turn-off variant 1)	17.5	18.2				
CGGCAAUCCAAGGAUAUGCUAGACGAAAGUCUAGCAGAAGGUGGAACAUGAGGAUCACCCAUGUGUCCAAGCCG [Eli x6 4.04] (Eterna round: R97, puzzle: Exclusion 6)	21.1	15.3				
UUAAAUAGUGUGAGGAUAUGCUGGUCCUUGGAUCAGCAGAAGGCACAUGAGGAUCACCCAUGUAGUUAAUUUUA [Mat - Exclusion 4 - JL Mod - D22] (puzzle: Brourd's mod of Exclusion 4)			37.4			
UGUAGAGUGGUAGGAUAUCCGGCUGUUUCAGUCGGAGAAGGACCACAGUCACUGGGUCCUUAUAUGGGUGACCAUGUAUCUACU [pwkr exNG1 F6.7] (Eterna round: R96, puzzle: Exclusion NG 1)	558	395		305		
AGUCCAUAUGUUAGGAUAUGCAACUAGCCAUUGUAGCAGAAGGAACAUGAGGAUCACCCAUGUACAAAGACCCG [Biinvees] (puzzle: Brourd's mod of Exclusion 4)			23.6		33.6	18.2
UACUAUAAGGAGGAUAUCGUAUCGGAAACGAUACGAGAAGGCUUAACAUGAGGAUCACCCAUGUUCUUCAAUAA [Fiskers Ex 6 - 25] (puzzle: Exclusion 6)			16.2			
AGCUAGAUAGGAUAUGCCCGAGAUAACAUGAGGAUCACCCAUGUGACCGAAUCAAAUCUAGCAGAAGGGUUUAGGA [Mod of ViennaUCT 15 - Jieux - Exclusion 5] (Eterna round: R97, puzzle: Exclusion 5)	16.5	17.2				
UUAUUACAAGCAAGAUCCUACAUGAGGAUCACCCAUGUGCUCGUCUUGUAAGGUACAGUGACGAAAGUCACAGUACC [Sensor 3, v1 - 000] (puzzle: Sensor v3, turn-off variant 1)			302		24.7	24.9
AAAGAAGAAGUCAGGAUAUAGUUAAAGAAGACCGACUAGAAGGGACAUGAGGAUCACCCAUGUGUCAGUGGGUA [Lasoaned] (puzzle: Brourd's mod of Exclusion 4)			77.6		279	133
AAGCACGCGUAGGAUAUAAUCCAAACCUCGAGGUUAGAAGGACGCACAUGAGGAUCACCCAUGUUCCUAGCAUC [Eternabot (Original) Solution 19] (Eterna round: R97, puzzle: Exclusion 6)	20.7	17.1				
AAAACUCGAGUUAGGAUAUUGAGUGCUAAAAUCACCAAGAAGGAACAUGAGGAUCACCCAUGUAACGAAGGUGA [BmEX4 A.10] (Eterna round: R97, puzzle: Brourd's mod of Exclusion 4)	19.8	16				
GAAAAGGUAGGAUAUACGAAAAAAAAGGGUAGAAAAAAAACACAUGAGGAUCACCCAUGUAGAAGGACCAAGAG [salish99_ex2_r3_039] (puzzle: Exclusion 2)			24.3		61.7	31.9
AAGAAACAUGAGGAUCACCCAUGUGAGGAUAUGAUAAAGAAAAGAAAAGAAAGAAGAUUCAGAAGGCACAAAGG [salish99-ex1_r3_034] (puzzle: Exclusion 1)			39.4		62.3	48.7
CCAAGCUGUGUGAGGAUAUGCUGGUCGAAAGAUCAGCAGAAGGCACAUGAGGAUCACCCAUGUGAAAAGCUUGG [Mat - Exclusion 4 - JL Mod - D93] (puzzle: Brourd's mod of Exclusion 4)			16.3			
CUCUUGUUAGGAUAUCAAACCAGCGGCGGAACCGCUGGUAGUGAGAAGGGACAUGAGGAUCACCCAUGUAAGAA [Bige] (puzzle: Exclusion 4)			51.1		108	61.3
AGUUGGCGAGGAUAUACAUGAGGAUCACCCAUGUGAAAUAGAAUAGUGAGGAAGAAAAGUAGAAGGCGCUGACA [Mat - Exclusion 3 - Mod of Salish D41] (puzzle: Exclusion 3)			49.7			

Sequence	apparent KD of MS2 coat protein (input ligand: FMN 200 uM) [nM]	apparent KD of MS2 coat protein (input ligand: none) [nM]	apparent KD of MS2 coat protein [1] [nM]	apparent KD of MS2 coat protein [2] [nM]	apparent KD of MS2 coat protein [3] [nM]	apparent KD of MS2 coat protein [4] [nM]
ACAUGAGGAUCACCCAUGUCCGGCUGGUCUGUCUCGGCUGUCGAGGAUAUAGCACGGUAUCCGCGCUAGAAGGCGGGAGCCGGU [Aenatbe mod 87] (Eterna round: R96, puzzle: Exclusion NG 3)	216	42.8		29		
UACAUGAGGAUCACCCAUGUUUUGUCGUGUAUGGUAUUUAUCUAGGAUAUCAAGUUAUUUAUGUAUGAGAAGGAGAAUAUUAAU [JMF's solution 36] (Eterna round: R96, puzzle: Exclusion NG 3)	42.5	35.2		26.4		
AUCGUGCAGCUUUGCUGUACGAGUACAUGAGGAUCACCCAUGUAGGAUAUGGUACGCUUUGCGUGCUAGAAGGAUAUGAGUAGG [EX ENG3 1.42] (Eterna round: R96, puzzle: Exclusion NG 3)	84.3	48.3		43		
AAAACGGACCGAGGAUAUACAUGAUAUCUUUACGUAGAAGGCGGACCGGCGACUUGAGGAUCACCCAAGUGUCCUCUUUUGCGG [Mutated MS2 EX1.26] (Eterna round: R96, puzzle: Exclusion NG 1)	184	46.7		51.1		
CUCGUGUGAGGAUAUCGAUUAUGGAAGUCUAGAUCCAUACGCGAGAAGGCACAUGAGGAUCACCCAUGUAAUGG [jl-ex4-4.35 ViennaUCT mod] (Eterna round: R97, puzzle: Exclusion 4)	68.3	176				
CUUGUGUGAGGAUAUCAGUAGUAGUACGAUAGUAUUACUGCUGAGAAGGCACAUGAGGAUCACCCAUGUUCUUC [Exclusion 4 - Mod Omei Ex4 344 mod v.4] (puzzle: Exclusion 4)			23.6			
CUGAGCUCAGGAUAUACAUGAGGAUCACCCAUGUGUUCCUGCGACGUUAGUUGCACAUGUAGAAGGGAGUUCGG [Less Extended Mod of JL - ex3-3.35 Brourd mod] (puzzle: Exclusion 3)			218			
CCUCUACAUGAGGAUCACCCAUGUGAGGAUAUGUUGACGAGCCUGAAAAGGCUGGUCAACAGAAGGCAUAUGUA [Exclusion 1 (Mod 2 solution 16 by Eternabot)] (Eterna round: R97, puzzle: Exclusion 1)	40.3	18.9				
CUCCGGCGUGUAGGAUAUGGAUCCGAUUAGGAUCCAGAAGGACAUGAGGAUCACCCAUGUACAUGUCGGCGGUCGUCACCGGGC [salish99_ExNG1_r04_209] (Eterna round: R96, puzzle: Exclusion NG 1)	34	20.1		14.4		
AGUACUAUGCGAGCUGACUUGCGUAGUGCAGCAGGUGUAACAUGAGGAUCACCCAUGUCCUCAUUUGCUCGUCUUAU [Mat - Sensor v3 - Turn-off var 2 - D8] (puzzle: Sensor v3, turn-off variant 2)			326		250	248
ACAGCGUGAGGAUAUACAUGAGGAUCACCCAUGUGUGGCAGGUUAUCCUGUCAUGAGUGUAGAAGGCACGCUGU [Exclusion 3 - Oddities v.7 ( A small slide from ms2 to fmn)] (puzzle: Exclusion 3)			26.2			
AAUUAGUGAGGAUAUACUAACAGUGGUAGUAGAUAGUGGAUGUAGAAGGCACAUGAGGAUCACCCAUGUUAUAA [EX4 #52] (Eterna round: R97, puzzle: Exclusion 4)	26	43.7				
UAUUAGCAAGCAAGAUCCCACAUGAGGAUCACCCAUGUGCUCGUCUUAUAAGGUACUGUGACGAUAGUCACGGUACC [Mat - Sensor, turn-off var - Eli Mod - D46] (Eterna round: R97, puzzle: Sensor, turn-off variant 1)	60.5	54.1				
UAUAUAUAGUAAGGAUAUGUAUUAUUUUUAUAAACAGAAGGUACUGACAUGAGGAUCACCCAUGUUUUAGUGUGGGCAUGUAGA [JMF's solution 73] (Eterna round: R96, puzzle: Exclusion NG 1)				36.9		
CAAAAGCUAGGAUAUCGCAAACAAGACAUGAGGAUCACCCAUGUGUCCAUGGCCGACCUCCGAGAAGGAGCAAUAU [Dieded] (puzzle: Exclusion 5)			27.9		32.5	30.5
GAGUCACAUGAGGAUCACCCAUGUGAGGAUAUCAUGCUUCGUAGUAAACUACGAAGUGUGAGAAGGCACAAUGG [Omei Ex1 C8] (Eterna round: R97, puzzle: Exclusion 1)	126	68.6				
UUUUAGCAAGGAUAUACAUUUUUUUUAUUAUCCUCAUUAUUACAUGAGGAUCACCCAUGUAGAAGGUGCAUUUU [My Design] (puzzle: Exclusion 2)			36.7			
